{"source": "patent US7018801", "binders": {"B1": {"name": "synthetic LEPB (peptide, from a related filing)", "peptide": "KARKEAELAAATAEQ"}, "B2": {"name": "interleukin converting enzyme (ICE) (protein)", "chain": "NPAMPTSSGSEGNVKLCSLEEAQRIWKQKSAEIYPIMDKSSRTRLALIICNEEFDSIPRRTGAEVDITGMTMLLQNLGYSVDVKKNLTASDMTTELEAFAHRPEHKTSDSTFLVFMSHGIREGICGKKHSEQVPDILQLNAIFNMLNTKNCPSLKDKPKVIIIQACRGDSPGVVWFKDSVGVSGNLSLPTTEEFEDDAIKKAHIEKDFIAFCSSTPDNVSWRHPTMGSVFIGRLIEHMQEYACSCDVEEIFRKVRFSFEQPDGRAQMPTTERVTLTRCFYLFPGH"}, "B3": {"name": "LEPB (peptide)", "chain": "KARKEAELAAATAEQ", "modifications": "not checked"}}, "key": {"[1]": {"molecular_target": "GG (GST - ICS linker - GFP model substrate for ICE) (human) [GST: P08515]"}, "[2]": {"molecular_target": "GG (GST - ICS linker - GFP model substrate for ICE) (human) [GST: P08515]", "assay": "cell-based or functional assay"}, "[3]": {"molecular_target": "GG (GST - ICS linker - GFP model substrate for ICE) [GST: P08515]", "sequence (P08515 whole entry, looked up)": "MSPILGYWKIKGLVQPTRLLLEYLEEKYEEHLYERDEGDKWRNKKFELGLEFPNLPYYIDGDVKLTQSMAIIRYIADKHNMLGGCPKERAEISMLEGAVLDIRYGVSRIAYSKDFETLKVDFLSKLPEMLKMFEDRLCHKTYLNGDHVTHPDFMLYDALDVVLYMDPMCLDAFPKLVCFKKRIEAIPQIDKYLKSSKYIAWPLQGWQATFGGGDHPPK"}, "[4]": {"molecular_target": "GM (GST - ICE-site linker - MBP model substrate for ICE) [GST: P08515]", "sequence (P08515 whole entry, looked up)": "as above"}, "[5]": {"molecular_target": "T1, ICS (14 mer epitope that is part of human pro-IL-1beta) (human)", "T1 chain": "NEAYVHDGPVRSLN", "assay": "method not stated; 'measured in a different context' from the protease experiment"}}}
{"binder": "B1", "values": [{"measurement": "IC50 (read off the curve), inhibition of ICE cleavage of GG", "setting": "[1]", "value": 80, "unit": "µM"}, {"measurement": "IC50 of inhibition of the cleavage of GG by ICE", "setting": "[2]", "value": "50 to 100", "unit": "µM"}]}
{"binder": "B2", "values": [{"measurement": "cleavage of substrate by purified ICE", "setting": "[3]", "value": "Purified ICE cuts both the GG and GM substrates efficiently under these conditions"}, {"measurement": "cleavage of substrate by purified ICE", "setting": "[4]", "value": "Purified ICE cuts both the GG and GM substrates efficiently under these conditions"}]}
{"binder": "B3", "values": [{"measurement": "Kd", "setting": "[5]", "value": 2, "unit": "µM"}]}
